This experiment deals with C-192 ( | human, UniProt P0CG48 1-76; P0CG48 1-76, L73P (from the printed letters 55-TLSDYNIQKESTLHLVLRPR-74), Lys63 of the acceptor ubiquitin in an isopeptide bond with the C-terminal glycine of the donor ubiquitin (Lys63-linked diubiquitin) | C-terminal glycine of the donor ubiquitin in an isopeptide bond …). As to the kind of experiment: SPR; Biacore T200; C-192 immobilised on a CM5 chip by amine coupling (5 ug/mL in 10 mM sodium acetate pH 5.5, 400 RU); GLP-1R, GCGR (3.906-1000 nM) or KLB (0.195-200 nM) injected at 50 uL/min for 4 min, dissociation 10 min; 1:1 kinetic binding model. The note with it: both partners purified. (In SPR one partner is held on a chip, and binding of the other changes the refractive index at the surface.)

B1: GCGR (receptor)
chain: AQVMDFLFEKWKLYGDQCHHNLSLLPPPTELVCNRTFDKYSCWPDTPANTTANISCPWYLPWHHKVQHRFVFKRCGPDGQWVRGPRGQPWRDASQCQMDGEEIEVQKEVAK
On to B1, for which the Kd – broadly, the concentration at which binding is half-saturated – is 19.4 nM and the kon – broadly, the rate constant with which the complex forms – was found to be 26300 M⁻¹ s⁻¹.

Source of the values: paper PMC10674394 (Pharmaceuticals, 2023).
